Experiment: soluble fraction after stress (log2 fold change); higher = more stays soluble; pooled small domains, quantitative proteomics
Conditions: stress: 50 degC
In short: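 Quantitative proteomics served as the high-throughput read-out for pooled custom libraries of small protein domains. Each was stressed at 50°C. Aggregation propensity is expressed as the base-two log fold change in soluble protein after stress. A higher value means a larger share of the protein remains in solution.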

Point of comparison: “HMLVGRDPQALILGSMPSEKSLEEDEYYAHPRNRFWSLMNWLLAGNKTRPAYKTGIEILSSHGIALWV”, “soluble fraction (log2)” value -0.263. Against it:
- HMNLTEIGQRIRDRREELGLSQDRLAKLGGLPRVTINQLETGSIGDLGVSKLLNLLDLLGLTLDA — within 0.2 log units, -0.108
- HMLPRNKRIEIALTYIYGLGRHAATVVLKHANISPDKRTDDLDENDVRKLRDAIDANFRVEGDLRR — higher, -0.0528
- HMHLPDNAVSIISELKMTPEEVLELIGKLPHDFLFLPYSQRKKIIVDLIPNKDYKLLMSLIKKFML — lower, -1.12
- HMSKPIYSELLREIRSGDVKELTLIPQRREVLVEYSDGRKATVSILANDQQVLRTAESAGVPLTVK — higher, -0.0265
- HMGKELTVPDVVGQNYVSAQEKLIAGGFQVEVADSVYDSRYGRGVVVDQNPHKDTRVKPGRLIYVTVNA — within 0.2 log units, -0.0999
- HMLLQTRQRHEALAALGYFKGDVAAAWGPASEEALRAAQAAFGITVDGKWGPQTEDAIQGALQV — within 0.2 log units, -0.213
- HMFLTSDEGKIMQLLEDKQRITRKDAQELLGVSQSTAGRILKTLVDNGQITQRGGGRTTRYELIK — higher, 0.184
- HMENSYSVEDLALKAAISVDTIRYYQGLGLISPPQKNGRRAIYGNDHISRLEEIKKLAFEGFSLRQISLL — within 0.2 log units, -0.224
- HMFPELTDDEQLIVSTLAKTNDMQINMLAVRTGIPVQRMSALLFSLEMKGVVKMYAGGTYHLL — lower, -1.05
- HMPTGRVVIPLNRLTASDVARILDEAYGRDHNFEVVKPSRLAKGIIVIGPKSEIDGIKELLAH — lower, -0.535
- HMLVVEPSAELKTIIDKTASFVARNGPEFEARIKNEQNNAKFSFLQPNDPFNPYYRAKIVELGGTV — higher, 0.0591
- HMLKEKETRALANFTNKFFGLDISEDLKPIALSELSKFKKTHKISNLEEFINSFQYDFQNEKILSLLDIFL — lower, -0.994
- HMAHKYYSIMRPVSIGTFPDNGTILGIVNFDTRQMVESIGKMAWGYINYGKPLTEKQISDYELVAE — within 0.2 log units, -0.451
- HMDMPLIGTAIRGWGIISPAQQETLIKMSILTVEDLAAINDEGIKRIGMGGLDLKNKAKAWLLQLK — lower, -0.751
- HMVAGPDEPLSDREQGVLDLLAEGLSNKAISKQLGISVATVKSHLSNIYGKLQAENRMQAVARARELGLM — higher, ≥ 0.62
- HMEQSGDELKTWVDQAIAAYPEKVKEYQQGKKGLLALFIGEVMKRSKGTADPKKVNQLVTEALS — higher, 0.045
- HMDIFFEKIFNILIGYNQNQENLISEKSILNFHLSHKSNSNFEYIPDEKTPKYIWKYLSNYNLLE — within 0.2 log units, -0.359
- HMGGGEYTVAKGDTLWKIAAQTLGSPTRYAEIYNLNKDVIEETARGRGKRDSSNGHWLFPGTALKIPGT — higher, 0.355
- HMKVQEVDYGTFLTMVDEGKVNQVDIENSKQITFNTKGDKNKVYITGQVNDPELVNRLYKAGVEFSQEIP — higher, 0.0729
- HMLIELKIPSEWAGKSLHTLNLRQNYNVNVIGFRDEKSGKLNTHFDPSKKLPDEGIILVVADNRTLEKF — lower, -0.837
- HMMVIMRANATEPQIANVVAYVEKNGLNAHLSRGAERTVIGVVGDIRRVSKETFELMDGVDSVMRIS — within 0.2 log units, -0.356
- HMLADTNIHTIALKHRLANEVVEQVRPFLPETATIRAYDNMLILKSDRATLANVEQLIKKLDT — higher, 0.0983
- HMSINISFEPADHLGKDVIFIRFPYDNEWIQRVRKLKGAKWSQSQRAWHVPDTEHYRTLFQLPQKI — lower, -2.6
- HMKSGLLNLSTRKQEKIKQALLSEFSNVSLLEAKVANIVTLAEISRGSFYTYFEDIYDAYQWLASI — within 0.2 log units, -0.26
- HMSENEVQAKVKEIVDRYAGDKSALIAILQDVQDEYRYLPKEALVSIQQQMNIPLSRVYEVATFYDAFS — within 0.2 log units, -0.424
- HMTVTLTTLRNGSTGAQVKTLQRLLSAMDYYNGETDGKFGISTAAAVKAFQRAKRLTVDGIVGKNTWTALL — lower, -1.18
- HMEQVLDEEIIKSAVQKVIKDNPSAVSDYKAGKKTAFQFLIGKAMAELQGKGHPGKISELLEKE — higher, 0.439
- HMSSSLDQLTVREREILAQVSRGLSNKAIARELGISHDTVKLHVRHILSKLGFSSRVEAAVFAIEHRIG — lower, -1.72
- HMYPTPAAANRHFLDKWGHQEAYLGKVLNSRSRASEILNGKRPLSLSDLRTLRDNLGIPVDLLL — lower, -0.489
- HMTDSDTQDIDVGELRVGHFVFLDLSWIRHPFPLSSFKIQSAEQIKTIRSLGLRRIRYSPGRSGP — lower, -1.18
- HMYKNLRAFRESLGMTQKDFAASLSIGLSTYNGYEVGAREPKSDFWIAVARKYGVTIDYLMGFSDDPHK — lower, -1.11
- HMKKTAAKVLGESEGKPVTVQSGRYGPYVQLGSIRATLPKDLEQDDVTLDRALELISAKAERAGK — higher, 0.122
- HMKLVAAGYHQNRLLVLLGIQAEELQAKRLLASFDRFRGREATPKPPIHDSARRWLRDTYHHVMNQVPVEL — lower, -1.07
- HMDIKEIIKNRRIELGLTLKEVATAVGVSEGTVSRWESGNITNMKRNKIAALAKTLQIPPTTI — within 0.2 log units, -0.259
- HMLPLLAFDEKLNRLGYGGGFYDRTLASLAHKGNTITAIGIAYESQKMDKVPTGYFDRPLDGVLTPSGLIM — higher, 0.0274
- HMGVKHKHKGAGELLAALRTMFPNSSVSTLRKMLTQGRVVLNGEVVHRAKHELTDGDTIEVLERQRAER — higher, 0.209
- HMRDANYFINPIHEWQKRYEALRASFVDRLPAQAVAQRFGYTITYIHLLRHQFKSGKIDFSEPVPEG — lower, -4.61
- HMTGVEAIERYLASGVIPGVGPVLAKRLVERFGARTLEVIEDSPRRLTQVPGIGRQKARQIHQALKAQRE — within 0.2 log units, -0.25
- HMALPDSEKRQWLVDEVNERGLKLPDDVLEYLFARVGRSQAHLVDVIEKLDFESLAQSRKLTIPFVREVLK — within 0.2 log units, -0.152
- HMEHIVNELDRKVIDYLQSHYDAKLNDIAQGIGVSKATATKSIRKLVQTGIVHVVGSSGTGTSYNLTE — within 0.2 log units, -0.152
- HMDEFAGSAKPLADGAAPAGYDVKGNKDSMKYHEPGGRWYDATVAEVWFKTAADAEAAGFVKAGA — higher, 0.172
- HMHDITPAVAETFKQLRAERGLSLSQAAQLTGVSKAMLGQIERGQSSPTVSTLWKIATGFNVAFSVFL — lower, -2.4
- HMYDRIKLLKLREKRGLTQYELAEKAGISVVTLNKIETSDMAKPFASTLKKIALALGVGIEELS — within 0.2 log units, -0.121
- HMFVEKDSIINKGNNSYNFVITDNNNKVLVEYNGLLPDLFKEEQGVVIEGRLKSDFIIHAFTVF — within 0.2 log units, -0.209
- HMAAEFERKNGIVYFFHSSEKPHLNYPHVHARYGEDTISISLRDFTVIGSFSSKKKQKEAVEYVKNK — lower, -0.662
- HMTSEVPVGSNVRIRASTLAGERDFEGTMLPPAGEGLTTLKLVNGYNLSYPSKDVLDIEFLGGAGE — higher, 0.057
- HMSSGSLLTEREIEILAEMAKGLTNKAIGEKLFISVATVKTHILNIYRKLEVSSRVTAVNKAKQMRL — lower, -1.93
- HMFEYDEEEYEKLGPNADLTIKSMTDWGQSLVRKGVWSESDFEEFKIMGGTAQGLRALQKVRSYY — within 0.2 log units, -0.451
- HMIMVAGHLQIKKGKYYMVLELKSESGERKTKWISTGLSAKGNKRKAEAMLEEARENYQSTDA — lower, -0.899
- HMIISMKKGATPQEISHVRKLIEELGYKVHESQGSERMVFGAIGDERSKHRLTSLEAQPGVEKVIPILA — higher, 0.191
- HMAKIATTVYEQIRTAILNGELSNSERLVEEDLAVSMGISRTPVREALRRLAAEGLVDVSPNRGARVAE — within 0.2 log units, -0.293
- HMTAPELGIRQDGNTLVIFWPSSVTGYVLKSADAVDTPPASWTSVTHTTVGDEHRAEITPTGNSRFFRLV — within 0.2 log units, -0.267
- HMDSTSEILKVIQNIVKKEDPYHPLSDDKISNLLNDLDYQISRRTVAKYRDILTIPSSSKRRKL — within 0.2 log units, -0.432
- HMVSVPDIGEKLPDFTGTPKRLLTPLLNKNDVNIIIKGDGWVVSQKPPAGTPVTKGMTIEFTL — within 0.2 log units, -0.208
- HMNIAEIGQKVAQQRVALGISQERLAKLSDLSRSTIHHLEHGTLHEIGAAKLFKLLSLLDIQLK — lower, -0.761
- HMKVYPIMEAIANNNIELVKLLLEYHADLNIKDSNGNTPLALAKETGAKEVEDLLLQWMKQHT — lower, -0.543
- HMEENIKKDIEVPNIEGLTIDEAKKRLKEVNLNISIEDMEEKEGTEIITQQLPKAGIKVKEGVAIIAY — higher, 0.0824
- HMANTLDPMDLKQIISLHLDGFSNRKIGATLGISRNTVNTYMRLFSVSDYALKELLTLDNATLDKLFPS — lower, -2.01
- HMNIDQAFISDLERMIMPDISKYELMDIISIMENSGFTIKVEGTGNEVRQVIKPGSKLKKGQKIKIKL — lower, -1.83
- HMGLSAEAARMAIQDAGLSKEDFAQKLGIKKVERVVEWEAGTSKPTFVQAQKIANATNIPFGYLFLVNPPK — higher, 0.0125
- HMRLPNHYGSVVKLSGKRRRPFMVRGGVYGYDDRGYPQYVIVGYTETREQGLTMLAEYNRNP — lower, -3.22
- HMAVSPEEQKKRIIELFRNRNEVSFKEIFDLPTKGHFVITLLAVLDLARQQIVIMEQLENEGIIKFTKGA — within 0.2 log units, -0.0715
- HMTGMEKFLTIPSIRESTAAFEREYLIHYLDENAWQVSKTAAAIGIERTTLYKKMKQLGIVPIEE — lower, -2.07
- HMGGPEPIPAQIREGDTVYVTKFKQLGLVLKISEDTAEVQIGPLRATVAKTELSKVDATATEHR — higher, 0.158
- HMDQINNDLRKLIEFLPEDQKTVLKMRHFQEMSFKEIAKATGVSINTALGRMRYALINLRKLIEENEI — lower, -1.41
- HMAKPAALLFEHRFDGMAEMRFRENIVKNDDGSYTYDEYFLSMLDRAGLEKIVQENMEVWIAYAKQ — lower, -2.17
- HMGQLVVHQIKGEASRLDKFLVVNIPKYSRSVWREMINNGSVQVNGRVVKPHLLVKEGDIITWSS — within 0.2 log units, -0.383
- HMKLKHANGNHPLTQQEKQNMIEEAAKHYGDYMTALGFDWKQDPNSSDTPMRVAKAFVNDLAEGVY — higher, 0.0454
- HMHDAKAEIIRLSALLTEYQRSYYIDGHSQVSDLEYDRLFDRLVALETSHPELREADSPTQRV — lower, -0.855
- HMSSYMQMQLERLESLLQKNDLTDSDKYDIRQLVEDLDKVPESVSPNLVGAYMTIKNRYASVLKTVL — higher, 0.501
- HMFLTPLEETRLAIEEVVIAKNIAIDLFPRESAIRKQQHELIYHYHLKGLTVGTEKNKRLRIFPRGY — higher, -0.000251
- HMLERPLFTPEQYGRFRGKEARIRLSNPVEGRKTLTGSIVEATEERIVVFVEEEEREVTVPFQWIKSGNL — within 0.2 log units, -0.435
- HMNVEATAETLLALLKKNGGSLPFGDKSDPEAIQSQLKMSKKTFKKAAGTLFKKKLVRIEDHGIFL — lower, -0.657
- HMRVPTVIGMDEGTAKATLANASLKSNIVYESDETKENGKVLSQGIEQNKEVKAGTTVEIKVNKIE — higher, -0.0202
- HMNINVRNTGIKAVENNIINLSSDQRTFTWASNDRKLITVPFDENPYSALAAWFKTDEGIEVYQTIEKKL — within 0.2 log units, -0.115
